Measurements as given in paper PMC2913173 (Journal of molecular biology, 2009).

Legend:
Test in all cases: flow cytometry on cells
[1] = target: T1, Bak(72–89)–eCPX fusion displayed on E. coli (UniProt Q16611 72-89)
T1 chain (looked up): GQVGRQLAIIGDDINRRY

[2] = target: T2, Bak(72–89) R88A–eCPX fusion displayed on E. coli (UniProt Q16611 72-89, R88A)
T2 chain (looked up): GQVGRQLAIIGDDINRAY

[3] = target: T3, Bak(72–89) R88E–eCPX fusion displayed on E. coli (UniProt Q16611 72-89, R88E)
T3 chain (looked up): GQVGRQLAIIGDDINREY

[4] = target: T4, Bak(72–89) R88Q–eCPX fusion displayed on E. coli (UniProt Q16611 72-89, R88Q)
T4 chain (looked up): GQVGRQLAIIGDDINRQY

[5] = target: T5, Bak(72–89) Y89A–eCPX fusion displayed on E. coli (UniProt Q16611 72-89, Y89A)
T5 chain (looked up): GQVGRQLAIIGDDINRRA

[6] = target: T6, Bak(72–88)–eCPX fusion displayed on E. coli (UniProt Q16611 72-88)
T6 chain (looked up): GQVGRQLAIIGDDINRR

[7] = target: T7, Bak(72–87)–eCPX fusion displayed on E. coli (UniProt Q16611 72-87)
T7 chain (looked up): GQVGRQLAIIGDDINR

- median fluorescence [1]: 19.1 AU
- median fluorescence [2]: 24.6 AU
- median fluorescence [3]: 8.4 AU
- median fluorescence [4]: 11.1 AU
- median fluorescence [5]: 11.9 AU
- median fluorescence [6]: 8.3 AU
- median fluorescence [7]: 2.1 AU
B1: biotinylated Bcl-2 chimera (isoform 2): residues 1–34 of Bcl-2, residues 35–50 of Bcl-xL, residues 92–207 of Bcl-2 (other, UniProt P10415 1-34, looked up)
chain: MAHAGRTGYDNREIVMKYIHYKLSQRGYEWDAGDTEAPEGTESEMETPSAVVHLTLRQAGDDFSRRYRRDFAEMSSQLHLTPFTARGRFATVVEELFRDGVNWGRIVAFFEFGGVMCVESVNREMSPLVDNIALWMTEYLNRHLHTWIQDNGGWDAFVELYGPSMR
modifications: biotin on the lysine of the biotin acceptor peptide (…)
